Data: patent publication US20210317201A1 (Boehringer Ingelheim, published 2021)
Residue numbers refer to the chain shown, from its start. Several values for one entry are separate records, joined by “and”; a condition that tells them apart may be missing. Identical values can stand only once. One block for each binder: values may come before it.

Legend:
[1] = molecular target: T1, recombinant human IL-23 (human, UniProt P29460 23-328); assay: cell-based or functional assay
T1 sequence 1: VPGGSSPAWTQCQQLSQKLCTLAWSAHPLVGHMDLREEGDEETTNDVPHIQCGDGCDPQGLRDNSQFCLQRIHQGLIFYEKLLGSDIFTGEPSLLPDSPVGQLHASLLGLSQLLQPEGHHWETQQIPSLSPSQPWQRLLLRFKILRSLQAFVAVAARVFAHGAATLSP
T1 sequence 2: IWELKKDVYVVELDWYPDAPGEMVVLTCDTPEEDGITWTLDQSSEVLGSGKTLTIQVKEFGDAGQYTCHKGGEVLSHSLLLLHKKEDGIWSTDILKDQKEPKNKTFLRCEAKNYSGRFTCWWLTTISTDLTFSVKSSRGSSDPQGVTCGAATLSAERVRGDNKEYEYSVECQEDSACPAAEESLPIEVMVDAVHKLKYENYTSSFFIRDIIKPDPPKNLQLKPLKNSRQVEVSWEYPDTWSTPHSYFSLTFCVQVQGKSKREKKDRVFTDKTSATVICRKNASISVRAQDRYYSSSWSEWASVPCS

[2] = molecular target: T1, recombinant human IL-23; assay: BLI, Fortebio Octet; hybridoma-derived antibody
Method: Kinetics and binding affinities were measured using the Fortebio OCTET® (Fortebio, Menlo Park, Calif.) using material generated from hybridoma following single column purification.

[3] = molecular target: T2, natural human IL-23 from activated THP-1 cells (human, UniProt P29460 23-328); assay: cell-based or functional assay
T2 sequence 1: T1 sequence 1
T2 sequence 2: T1 sequence 2

B1: 18C4 (antibody, V domains shown)
VH: EVQLQQSGPEVVKPGASVKMSCKASGYTFTSSVIHWVKQKAGQGLEWIGYINPYNDGTKYNEKFKGKATLTSDRSSSTAYMELSSLTSEDSAVYYCTRRLDEAYWGQGTLVTVSA
VL: DIVMTQSPATLSVTPGDRVSLSCRASQSISEYLHWYQQKSHESPRLLIKYASQSISGIPSRFSGSGSGSDFTLSINSVEPEDVGVYYCQNGHSFPFTFGSGTKLEIK
notes: Mouse monoclonal antibody from hybridoma; also called 18C4vk; 18C4vh
IC50, IL-23 stimulated IL-17 production from mouse splenocytes [1]: 471 pM
Kd [2]: 5.57 pM
koff [2]: 2.14e-06 s⁻¹
kon [2]: 384000 M⁻¹ s⁻¹

B2: Chimeric 22E2 (antibody, V domains shown)
VH: B1 VH with V11L, V33I, K40R, A41P, N55D, G57V, R74K, T97A, L100W, A103S
VL: B1 VL with E31V, H41P
IC50, IL-23 stimulated IL-17 production from mouse splenocytes [1]: 100 pM

B3: 18E5 (antibody, V domains shown)
VH: EVQLQQSGPELVKPGAAVKMSCKASGYTFTRYLIHWVKQKPGQGLEWIGYINPYNDGTKYNEKFKGKATLTSDKSSSTAYMELSSLTSEDSAVYYCTSNWDLDYWGQGTTLTVSS
VL: B1 VL with E31D, H34Y, Y50F, S63T, N76D, E81D, Y86F, Y87F, S100G
notes: Mouse monoclonal antibody from hybridoma; also called 18E5vk; 18E5vh
IC50, IL-23 stimulated IL-17 production from mouse splenocytes [3]: 9 pM and 13 pM
Kd [2]: 7.93 pM
koff [2]: 2.61e-06 s⁻¹
kon [2]: 329000 M⁻¹ s⁻¹

B5: Chimeric 24A5 (antibody, V domains shown)
VH: B1 VH with V11L, S31T, V33I, I34M, A41P, N55D, G57V, R74K, T97V, L100W
VL: B1 VL with D17N, E31D, D70N
IC50, IL-23 stimulated IL-17 production from mouse splenocytes [3]: 95 pM and 102 pM
IC50, IL-23 stimulated IL-17 production from mouse splenocytes [1]: 404 pM

B8: 18D3 (antibody, V domains shown)
VH: B3 VH with A17S
VL: B1 VL with E31D, H34Y, Y50F, S63T, N76D, E81D, Y86F, Y87F, S100G
notes: Mouse monoclonal antibody from hybridoma; also called 18D3vk; 18D3vh
IC50, IL-23 stimulated IL-17 production from mouse splenocytes [1]: 234 pM
Kd [2]: 6.78 pM
koff [2]: 2.16e-06 s⁻¹
kon [2]: 319000 M⁻¹ s⁻¹

B9: 20E8 (antibody, V domains shown)
VH: B1 VH with V11L, I34M, K59Q, R74K, S75F
VL: B1 VL
notes: Mouse monoclonal antibody from hybridoma; also called 20E8vk; 20E8vh
IC50, IL-23 stimulated IL-17 production from mouse splenocytes [3]: 438 pM and 561 pM
Kd [2]: 638 pM
koff [2]: 0.000269 s⁻¹
kon [2]: 421000 M⁻¹ s⁻¹

B10: 73H10 (antibody, V domains shown)
VH: EVQLQQSGPELVKPGASVKMSCKASGYTFTRYVMHWVKQKPGQGLEWIGYINPYNDVTKYNEKFKGKATLTSDRSSSTAYMKLSSLTSEDSAVYYCARNWDVPYWGQGTLITVSA
VL: DIQMTQSPVFLSASVGETVTITCRASENIDSYLAWYQQKQGKSPQLLVFAARNLADGVPSRFSGSGSGTQYSLKINRMQSEDVARYYCQHYYSTPFTFGSGTKLEIE
notes: Mouse monoclonal antibody from hybridoma; also called 73H10Vk; 73H10VH
IC50, IL-23 stimulated IL-17 production from mouse splenocytes [1]: 1410 pM
Kd [2]: 99.2 pM
koff [2]: 5.24e-06 s⁻¹
kon [2]: 52900 M⁻¹ s⁻¹

B13: 43F5 (antibody, V domains shown)
VH: EVQLQQSGPELVKPGASVKISCRASGYSFTGYYMNWVKQSPEKSLEWIGEIIPTTGGTSYNQKFKAKATLTVDKSSSTAYMQLKSLTSEDSAVYYCARESGGFYWYFDVWGTGTTVTVSS
VL: DVVMTQSPLSLPVSLGDQASISCRSSQSLVHSNGNTYLHWYLLKPGQSPKLLIYKVSNRFSGVPDRFSGSGSGTDFTLKISRVEAEDLGVYFCSQSTHVPYTFGGGTKLEIK
notes: Mouse monoclonal antibody from hybridoma; also called 43F5vk; 43F5vh
IC50, IL-23 stimulated IL-17 production from mouse splenocytes [3]: 8000 pM
Kd [2]: 34.6 pM
koff [2]: 5.96e-06 s⁻¹
kon [2]: 172000 M⁻¹ s⁻¹

B14: 34G3 (antibody, V domains shown)
VH: EFQLQQSGPELVKPGASVKISCKASGYSFTDYNMNWVKQSKGKSLEWIGVIIPNYGFTSYNQNFKGKATLTVDQSSSTAHMQLNSVTSEDSAVYYCVRDGGILLWYLDVWGTGTTVTVSS
VL: B13 VL with S7T, L43Q, K112N
notes: Mouse monoclonal antibody from hybridoma; also called 34G3Vk; 34G3VH
IC50, IL-23 stimulated IL-17 production from mouse splenocytes [3]: 27 pM and 25 pM
IC50, IL-23 stimulated IL-17 production from mouse splenocytes [1]: 336 pM
Kd [2]: 32.8 pM
koff [2]: 3.1e-05 s⁻¹
kon [2]: 918000 M⁻¹ s⁻¹

B15: 2D1 (antibody, V domains shown)
VH: QVQLKESGPGLVAPSQSLSITCTVSGFSLTTYAISWVRQSPGKGLEWLGVIWTGGGTKYNSALKSRLSISKDNSKSQVFLKMNSLQTDDTARYYCARKDYNYGGAMDYWGQGTSVTVSS
VL: DIVLTQSPGSLAVSLGQRATISCRTSESVYSYGQNFIHWYQQKPGQPPKLLIYRASNLESGIPARFSGSGSRTDFTLTMNPVEADDVATYYCQQTNEDPYTFGGGTKLEIR
notes: Mouse monoclonal antibody from hybridoma; also called 2D1vk; 2D1vh
IC50, IL-23 stimulated IL-17 production from mouse splenocytes [3]: 2340 pM and 1910 pM and 1600 pM
Kd [2]: < 1 pM
koff [2]: < 1e-06 s⁻¹

B17: 27G8 (antibody, V domains shown)
VH: QVQLQQSDAELVKPGASVKISCKVSGYTFTDHTIHWMKQRPEQGLEWIGYIYPRDGYPKFNEKFKGKATLTADKSSSTAYMQLNSLTSEDSAVYFCARRPPYYAMDYWGQGTSVAVSS
VL: DIVLTQSPASLAVSLGQRATISCRASKSVSTSGYSYIHWYQQKPGQPPKFLIYLASNLDSGVPARFSGSGSGTDFTLNIHPVEEEDAATYYCQHSRELPYTFGGGTKLEIK
notes: Mouse monoclonal antibody from hybridoma; also called 27G8vk; 27G8vh
IC50, IL-23 stimulated IL-17 production from mouse splenocytes [3]: 5000 pM
IC50, IL-23 stimulated IL-17 production from mouse splenocytes [1]: 235 pM
Kd [2]: 27.2 pM
koff [2]: 4.26e-06 s⁻¹
kon [2]: 157000 M⁻¹ s⁻¹

The next lines start with the values.

IC50, IL-23 stimulated IL-17 production from mouse splenocytes [3]: 2000 pM
IC50, IL-23 stimulated IL-17 production from mouse splenocytes [1]: 960 pM
Kd [2]: 11.5 pM
koff [2]: 3.45e-06 s⁻¹
kon [2]: 299000 M⁻¹ s⁻¹
B4: 31H9 (antibody, V domains shown)
VH: B3 VH with A17S, I34M, K59N, T97S, S98L, L102Y, D103A, T110L, L111V, S115A
VL: B1 VL with E31D, F96Y, S100G
notes: Mouse monoclonal antibody from hybridoma; also called 31H9vk; 31H9vh

IC50, IL-23 stimulated IL-17 production from mouse splenocytes [3]: 85 pM and 31 pM
IC50, IL-23 stimulated IL-17 production from mouse splenocytes [1]: 22 pM and 37 pM
Kd [2]: 22.6 pM
koff [2]: 4.57e-06 s⁻¹
kon [2]: 202000 M⁻¹ s⁻¹
B6: 24A5 (antibody, V domains shown)
VH: B1 VH with V11L, S31T, V33I, I34M, A41P, N55D, G57V, R74K, T97V, L100W
VL: B1 VL with D17N, E31D, D70N
notes: Mouse monoclonal antibody from hybridoma; also called 24A54vk; 24A5vh

IC50, IL-23 stimulated IL-17 production from mouse splenocytes [1]: 61 pM and 130 pM
Kd [2]: 1020 pM
koff [2]: 0.000353 s⁻¹
kon [2]: 346000 M⁻¹ s⁻¹
B7: 22E2 (antibody, V domains shown)
VH: B1 VH with V11L, V33I, K40R, A41P, N55D, G57V, R74K, T97A, L100W, A103S
VL: B1 VL with E31V, H41P
notes: Mouse monoclonal antibody from hybridoma; also called 22E2vk; 22E2vh

IC50, IL-23 stimulated IL-17 production from mouse splenocytes [1]: 1350 pM
Kd [2]: 68.3 pM
koff [2]: 2.09e-06 s⁻¹
kon [2]: 30600 M⁻¹ s⁻¹
B11: 74H3 (antibody, V domains shown)
VH: B10 VH with V33L, V57G, K63R, R74K, K82E, I111V
VL: DIQMTQSPASLSASVGETVIFTCRASENIDSYLAWYQQKQGKSPQLLVYAATNLADGVPSRFSGSGSGTQYSLKINSLQSEDVARYYCLHYYSTPFTFGSGTELEIK
notes: Mouse monoclonal antibody from hybridoma; also called 74H3Vk; 74H3VH

IC50, IL-23 stimulated IL-17 production from mouse splenocytes [3]: 232 pM
IC50, IL-23 stimulated IL-17 production from mouse splenocytes [1]: 126 pM
Kd [2]: 26 pM
koff [2]: 1.07e-05 s⁻¹
kon [2]: 411000 M⁻¹ s⁻¹
B12: 15C11 (antibody, V domains shown)
VH: EVQLQQSGPVLVKPGASVKMSCKASGYTFTDYYMNWVKQSHGKSLEWIGVIIPYNGGTSYNQKFKGKATLTVDKSSSTAYMELNSLTSEDSAVYYCARDGHRWYFDVWGTGTTVTVSS
VL: B13 VL with S7T, L43Q, S81N, K108Q
notes: Mouse monoclonal antibody from hybridoma; also called 15C11vk; 15C11vh

IC50, IL-23 stimulated IL-17 production from mouse splenocytes [3]: 281 pM and 138 pM
IC50, IL-23 stimulated IL-17 production from mouse splenocytes [1]: 59 pM
Kd [2]: < 1 pM
koff [2]: < 1e-06 s⁻¹
B16: 9D12 (antibody, V domains shown)
VH: B15 VH with G10V, T30N, T31N, Y32F, S40P, V50A, K58N, A96V, N101S
VL: DIALTQSPASLAVSLGQRATISCRASETINFYGTSFMHWYQQKPGQSPKLLIYRASNLESGIPARFSGSGSRTDFTLTINPVEADDVATYYCQQTNEDPYTFGGGTKLEIK
notes: Mouse monoclonal antibody from hybridoma; also called 9D12-Vk; 9D12VH

IC50, IL-23 stimulated IL-17 production from mouse splenocytes [1]: 27 pM
Kd [2]: 28.1 pM
koff [2]: 1.34e-05 s⁻¹
kon [2]: 476000 M⁻¹ s⁻¹
B18: 26F7 (antibody, V domains shown)
VH: EVQLQQSGPELVKPGASVKISCKASGYTFTDYYMNWVRQSHGESLEWIGDFNHNNDVITYNPKFKGKVTLTVEKSSTTAYMELRSLSSEDSAVYYCARGLRGYYAMDYWGQGTSVTVSS
VL: B17 VL with S30R, T31F, G33D, S35F, I37M, F50L, D59E, H94N
notes: Mouse monoclonal antibody from hybridoma; also called 26F7Vk; 26F7VH
